B1: αE-catenin ABD 666–906 (full length) (domain or fragment)
chain: GQSARAIMAQLPQEQKAKIAEQVASFQEEKSKLDAEVSKWDDSGNDIIVLAKQMCMIMMEMTDFTRGKGPLKNTSDVISAAKKIAEAGSRMDKLGRTIADHCPDSACKQDLLAYLQRIALYCHQLNICSKVKAEVQNLGGELVVSGVDSAMSLIQAAKNLMNAVVQTVKASYVASTKYQKSQGMASLNLPAVSWKMKAPEKKPLVKREKQDETQTKIKRASQKKHVNPVQALSEFKAMDSI
B2: αE-catenin ABD 699–868 (domain or fragment)
chain: DAEVSKWDDSGNDIIVLAKQMCMIMMEMTDFTRGKGPLKNTSDVISAAKKIAEAGSRMDKLGRTIADHCPDSACKQDLLAYLQRIALYCHQLNICSKVKAEVQNLGGELVVSGVDSAMSLIQAAKNLMNAVVQTVKASYVASTKYQKSQGMASLNLPAVSWKMKAPEKKP
B3: αE-catenin ABD 671–906 (domain or fragment)
chain: AIMAQLPQEQKAKIAEQVASFQEEKSKLDAEVSKWDDSGNDIIVLAKQMCMIMMEMTDFTRGKGPLKNTSDVISAAKKIAEAGSRMDKLGRTIADHCPDSACKQDLLAYLQRIALYCHQLNICSKVKAEVQNLGGELVVSGVDSAMSLIQAAKNLMNAVVQTVKASYVASTKYQKSQGMASLNLPAVSWKMKAPEKKPLVKREKQDETQTKIKRASQKKHVNPVQALSEFKAMDSI
B4: αE-catenin ABD 671–906 W859A (domain or fragment)
chain: B3 chain with W189A
B5: αE-catenin ABD 699–906 (domain or fragment)
chain: DAEVSKWDDSGNDIIVLAKQMCMIMMEMTDFTRGKGPLKNTSDVISAAKKIAEAGSRMDKLGRTIADHCPDSACKQDLLAYLQRIALYCHQLNICSKVKAEVQNLGGELVVSGVDSAMSLIQAAKNLMNAVVQTVKASYVASTKYQKSQGMASLNLPAVSWKMKAPEKKPLVKREKQDETQTKIKRASQKKHVNPVQALSEFKAMDSI
B6: αE-catenin ABD 671–872 (domain or fragment)
chain: AIMAQLPQEQKAKIAEQVASFQEEKSKLDAEVSKWDDSGNDIIVLAKQMCMIMMEMTDFTRGKGPLKNTSDVISAAKKIAEAGSRMDKLGRTIADHCPDSACKQDLLAYLQRIALYCHQLNICSKVKAEVQNLGGELVVSGVDSAMSLIQAAKNLMNAVVQTVKASYVASTKYQKSQGMASLNLPAVSWKMKAPEKKPLVKR
B7: αE-catenin ABD 692–906 (domain or fragment)
chain: QEEKSKLDAEVSKWDDSGNDIIVLAKQMCMIMMEMTDFTRGKGPLKNTSDVISAAKKIAEAGSRMDKLGRTIADHCPDSACKQDLLAYLQRIALYCHQLNICSKVKAEVQNLGGELVVSGVDSAMSLIQAAKNLMNAVVQTVKASYVASTKYQKSQGMASLNLPAVSWKMKAPEKKPLVKREKQDETQTKIKRASQKKHVNPVQALSEFKAMDSI
B8: αE-catenin ABD 696–906 (domain or fragment)
chain: SKLDAEVSKWDDSGNDIIVLAKQMCMIMMEMTDFTRGKGPLKNTSDVISAAKKIAEAGSRMDKLGRTIADHCPDSACKQDLLAYLQRIALYCHQLNICSKVKAEVQNLGGELVVSGVDSAMSLIQAAKNLMNAVVQTVKASYVASTKYQKSQGMASLNLPAVSWKMKAPEKKPLVKREKQDETQTKIKRASQKKHVNPVQALSEFKAMDSI

Positions count from the first letter of the chain named. Numbers in names are those of the source.

For the test, the target named is F-actin (rabbit skeletal muscle actin, ADP-actin filaments) (rabbit, UniProt P68135 1-377). Nature of the test: co-sedimentation; dilution series of ABD mixed with an equal volume of 4 μM F-actin, 30 min at room temperature, 20 mM HEPES pH 8.0, 150 mM NaCl, 1 mM DTT; pelleted at 140,717 x g for 20 min at 4°C; Coomassie bands quantified; fit with a Hill coefficient (W859A: one site-specific binding). The conditions noted are these: both partners purified.
The Kd is a measure of binding affinity in units of concentration. Turning to B1, the equilibrium dissociation constant (Kd) was found to be 8500 nM.

For the molecule B2, binding was characterised by a dissociation constant (Kd) of 2800 nM.

B3 came in with a dissociation constant Kd of 2000 nM.

In the case of B4, the dissociation constant Kd was more than 35000 nM.

Take B5: binding was put at a Kd of 500 nM.

On to B6, for which the dissociation constant Kd turned out to be 5000 nM. Compared with the last molecule, the Kd is about 10-fold higher.

Take B7: binding was characterised by a dissociation constant (Kd) of 700 nM. This Kd is about 7.1-fold lower than that of the molecule before.

As to B8, the dissociation constant Kd was found to be 400 nM. This Kd lies about 1.8-fold lower than the previous one.

These data come from paper PMC7588230, “Structural basis of αE-catenin–F-actin catch bond behavior” (eLife, 2020).
